Measurements taken from patent US20210008161A1, “METHODS AND COMPOSITIONS FOR IMPROVED HOMOLOGY DIRECTED REPAIR” (CRISPR THERAPEUTICS AG, priority 2019, published 2021).

System: CD34-expressing LT-HSPCs
Test: Indel formation at HBB locus by TIDE analysis
Assay type: cell-based, human
Conditions: RNP of Cas9 and R02 gRNA only; TIDE; FIG. 11
Method: Editing efficiency at the HBB locus was evaluated by measuring indel formation by TIDE analysis. […] This group had 1.7-fold reduction in INDEL frequency relative to cells treated with RNP+AAV,

B1: R02 gRNA: sgRNA targeting the HBB locus (SEQ ID NO: 17), used as RNP with Cas9 (nucleic acid)
guide: CNUNUNGCCCCACAGGGCAGUAAGUUUUAGAGCUAGAAAUAGCAAGUUAAAAUAAGGCUAGUCCGUUAUCAACUUGAAAAAGUGGCACCGAGUCGGUGCUNUNUNU
modifications: Synthetic gRNA-related, HBB sgRNA; modified_base (1)..(6) every c and u is a 2′ O-methyl phosphorothioate nucleotide; (2)..(2) n is a phosphorothioate nucleotide; (4)..(4) n is a phosphorothioate nucleotide; (6)..(6) n is a phosphorothioate nucleotide; modified_base (100)..(104) every u is a 2′ O-methyl phosphorothioate nucleotide; (101)..(101) n is a phosphorothioate nucleotide; (103)..(103) n is
  indel formation: 94%
